Laboratory results from patent US20180201681A1.

Assays:
[1] = target: human CD83 on the cell surface (KM-H2, L428, FDCP1 and BB88 cells transfected with full length human CD83) (human) (UniProt Q01151); assay: competition by flow cytometry on KM-H2 cells, antibodies added at the same time; reduction of the 3C12-RPE signal in the presence of HB15a-FITC
[2] = target: human CD83 on the cell surface (KM-H2, L428, FDCP1 and BB88 cells transfected with full length human CD83) (human) (UniProt Q01151); assay: flow cytometry on the CD83+ cell line KM-H2, background control

human CD83 on the cell surface (KM-H2, L428, FDCP1 and BB88 cells transfected with full length human CD83) (human), sequence (Q01151 20-205): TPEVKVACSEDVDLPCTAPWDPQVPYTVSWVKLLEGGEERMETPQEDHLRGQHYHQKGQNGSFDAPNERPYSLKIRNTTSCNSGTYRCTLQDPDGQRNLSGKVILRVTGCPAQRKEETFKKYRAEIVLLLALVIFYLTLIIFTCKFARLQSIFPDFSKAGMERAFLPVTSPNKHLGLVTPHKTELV

Reduction in 3C12 MFI (%) [1] | MFI [2] | Substance
24.7% |  | HB15a (commercial anti-human CD83 mAb, Immunotech) (antibody)
 | 335 MFI | isotype control (human IgG1) (antibody)
